Assay [1] addresses serum IgA of the coeliac disease patients that displayed reactivity towards both TG2 and TG6 (Example 5). Description: anti-TG2 IgA ELISA after preincubation of sera with 22.4 µg/ml soluble TG2.
In assay [2] the target is serum IgA of the gluten ataxia with enteropathy patients that displayed reactivity towards both TG2 and TG6 (Example 5). Described as above.
Assay [3] has as its target serum IgG of coeliac disease patient CD1. Description: inhibition ELISA: serum preincubated with 50 µg/ml soluble TG2, then TG2-coated plate, IgG detection.
The target of assay [4] is serum IgA of coeliac disease patient CD1. Nature of the assay: inhibition ELISA: serum preincubated with 50 µg/ml soluble TG2, then TG2-coated plate, IgA detection. (In general: An ELISA detects its analyte on a solid surface through an enzyme-linked reagent.)
The target of assay [5] is serum IgA of gluten ataxia with enteropathy patient GAE 16. Description: inhibition ELISA: serum preincubated with soluble TG2, then TG2-coated plate, IgA detection.
The target in assay [6] is serum IgA of the coeliac disease patients that displayed reactivity towards both TG2 and TG6 (Example 5). Description: anti-TG6 IgA ELISA after preincubation of sera with 22.4 µg/ml soluble TG2.
Assay [7] concerns the target serum IgA of the gluten ataxia with enteropathy patients that displayed reactivity towards both TG2 and TG6 (Example 5). The assay is described as above.
Assay [8] deals with serum IgA of the coeliac disease patients that displayed reactivity towards both TG2 and TG6 (Example 5). Description: anti-TG2 IgA ELISA after preincubation of sera with 22.4 µg/ml soluble TG6.
The target in assay [9] is serum IgA of the gluten ataxia with enteropathy patients that displayed reactivity towards both TG2 and TG6 (Example 5). The assay is described as above.
Assay [10] has as its target serum IgA of the coeliac disease patients that displayed reactivity towards both TG2 and TG6 (Example 5). Nature of the assay: anti-TG6 IgA ELISA after preincubation of sera with 22.4 µg/ml soluble TG6.
Assay [11] has as its target serum IgA of the gluten ataxia with enteropathy patients that displayed reactivity towards both TG2 and TG6 (Example 5). The assay is described as above.
For assay [12], the target named is serum IgA of gluten ataxia with enteropathy patient GAE 16. Nature of the assay: inhibition ELISA: serum preincubated with soluble TG6, then TG2-coated plate, IgA detection.

From patent US20130196336A1 come the findings set out here.

B1: recombinant human transglutaminase 2 with N-terminal hexahistidine-tag (enzyme)
chain: HHHHHHAEELVLERCDLELETNGRDHHTADLCREKLVVRRGQPFWLTLHFEGRNYEASVDSLTFSVVTGPAPSQEAGTKARFPLRDAVEEGDWTATVVDQQDCTLSLQLTTPANAPIGLYRLSLEASTGYQGSSFVLGHFILLFNAWCPADAVYLDSEEERQEYVLTQQGFIYQGSAKFIKNIPWNFGQFEDGILDICLILLDVNPKFLKNAGRDCSRRSSPVYVGRVVSGMVNCNDDQGVLLGRWDNNYGDGVSPMSWIGSVDILRRWKNHGCQRVKYGQCWVFAAVACTVLRCLGIPTRVVTNYNSAHDQNSNLLIEYFRNEFGEIQGDKSEMIWNFHCWVESWMTRPDLQPGYEGWQALDPTPQEKSEGTYCCGPVPVRAIKEGDLSTKYDAPFVFAEVNADVVDWIQQDDGSVHKSINRSLIVGLKISTKSVGRDEREDITHTYKYPEGSSEEREAFTRANHLNKLAEKEETGMAMRIRVGQSMNMGSDFDVFAHITNNTAEEYVCRLLLCARTVSYNGILGPECGTKYLLNLNLEPFSEKSVPLCILYEKYRDCLTESNLIKVRALLVEPVINSYLLAERDLYLENPEIKIRILGEPKQKRKLVAEVSLQNPLPVALEGCTFTVEGAGLTEEQKTVEIPDPVEAGEEVKVRMDLLPLHMGLHKLVVNFESDKLKAVKGFRNVIIGPA
B1: the mean inhibition (%) was determined as 37% in assay [1], 55% in [2], 18% in assay [6] and 14% in assay [7]. The results for the percent blocked in assay [3], in [4] and in assay [5] were 93%, 52% and 6%, respectively.

B2: recombinant human transglutaminase 6 with C-terminal hexahistidine-tag (enzyme, UniProt O95932 1-706, looked up, part only)
chain: MAGIRVTKVDWQRSRNGAAHHTQEYPCPELVVRRGQSFSLTLELSRALDCEEILIFTMETGPRASEALHTKAVFQTSELERGEGWTAAREAQMEKTLTVSLASPPSAVIGRYLLSIRLSSHRKHSNRRLGEFVLLFNPWCAEDDVFLASEEERQEYVLSDSGIIFRGVEKHIRAQGWNYGQFEEDILNICLSILDRSPGHQNNPATDVSCRHNPIYVTRVISAMVNSNNDRGVVQGQWQGKYGGGTSPLHWRGSVAILQKWLKGRYKPVKYGQCWVFAGVLCTVLRCLGIATRVVSNFNSAHDTDQNLSVDKYVDSFGRTLEDLTEDSMWNFHVWNESWFARQDLGPSYNGWQVLDATPQEESEGVFRCGPASVTAIREGDVHLAHDGPFVFAEVNADYITWLWHEDESRERVYSNTKKIGRCISTKAVGSDSRVDITDLYKYPEGSRKERQVYSKAVNRLFGVEASGRRIWIRRAGGRCLWRDDLLEPATKPSIAGKFKVLEPPMLGHDLRLALCLANLTSRAQRVRVNLSGATILYTRKPVAEILHESHAVRLGPQEEKRIPITISYSKYKEDLTEDKKILLAAMCLVTKGEKLLVEKDITLEDFITIKVLGPAMVGVAVTVEVTVVNPLIERVKDCALMVEGSGLLQEQLSIDVPTLEPQERASVQFDITPSKSGPRQLQVDLVSPHFPDIKGFVIVHVATAK
modifications: full-length C-terminal His6 tag
B2: the mean inhibition (%) in [8] worked out at 1%; in assay [9], 15%; in [10] it was 71%; in [11], 61%. Moreover, the percent blocked in assay [12] was determined as 37%.
